Data as given in paper PMC8956953 (The Journal of Biological Chemistry, 2022).
One block for each binder: values may come before it.

Target: T1, recombinant human full-length tau protein (htau40) (human, UniProt P10636-8 1-441)
T1 construct: human microtubule-associated protein tau, longest CNS splicing variant 2N4R (htau40); also called recombinant htau40; 2N4R; source: E. coli-derived recombinant protein
Assay: peptide or protein array; ProtoArray Human Protein Microarrays v5.1, ~9000 N-terminal GST-tagged human proteins spotted on nitrocellulose-coated slides; htau40 at 5 and 50 ng/μl in probe buffer (1x PBS, 0.1% Tween-20, 1x synthetic block), 90 min at 4 °C; detected with anti-tau K9JA and Alexa Fluor 647 secondary antibody
Conditions: both partners purified

binding result: binds
B1: YES1, spotted on the ProtoArray (enzyme)
chain: not shown
notes: human YES1 kinase; not shown: GST, N-terminal, kept

binding result: binds
B2: S100 calcium-binding protein B, spotted on the ProtoArray (natural protein, human, UniProt P04271 1-92, looked up)
chain: MSELEKAMVALIDVFHQYSGREGDKHKLKKSELKELINNELSHFLEEIKEQEVVDKVMETLDNDGDGECDFQEFMAFVAMVTTACHEFFEHE
notes: also called S100β; not shown: GST, N-terminal, kept

binding result: binds
B3: RPS6KA6, spotted on the ProtoArray (enzyme, human, UniProt Q9UK32 1-745, looked up)
chain: MLPFAPQDEPWDREMEVFSGGGASSGEVNGLKMVDEPMEEGEADSCHDEGVVKEIPITHHVKEGYEKADPAQFELLKVLGQGSFGKVFLVRKKTGPDAGQLYAMKVLKKASLKVRDRVRTKMERDILVEVNHPFIVKLHYAFQTEGKLYLILDFLRGGDVFTRLSKEVLFTEEDVKFYLAELALALDHLHQLGIVYRDLKPENILLDEIGHIKLTDFGLSKESVDQEKKAYSFCGTVEYMAPEVVNRRGHSQSADWWSYGVLMFEMLTGTLPFQGKDRNETMNMILKAKLGMPQFLSAEAQSLLRMLFKRNPANRLGSEGVEEIKRHLFFANIDWDKLYKREVQPPFKPASGKPDDTFCFDPEFTAKTPKDSPGLPASANAHQLFKGFSFVATSIAEEYKITPITSANVLPIVQINGNAAQFGEVYELKEDIGVGSYSVCKRCIHATTNMEFAVKIIDKSKRDPSEEIEILMRYGQHPNIITLKDVFDDGRYVYLVTDLMKGGELLDRILKQKCFSEREASDILYVISKTVDYLHCQGVVHRDLKPSNILYMDESASADSIRICDFGFAKQLRGENGLLLTPCYTANFVAPEVLMQQGYDAACDIWSLGVLFYTMLAGYTPFANGPNDTPEEILLRIGNGKFSLSGGNWDNISDGAKDLLSHMLHMDPHQRYTAEQILKHSWITHRDQLPNDQPKRNDVSHVVKGAMVATYSALTHKTFQPVLEPVAASSLAQRRSMKKRTSTGL
notes: human RPS6KA6 kinase; not shown: GST, N-terminal, kept
